Experimental data taken from patent US10808017B2, “Ubiquitin variants and uses therof as 53BP1 inhibitors” (The Governing Council of the University of Toronto, priority 2016, dated 2020).
Several values for one entry are separate records, joined by “and”; a condition that tells them apart may be missing. Equal entries are not always repeated.

Tests used:
[1] = test system: γ-H2AX focus formation in U2OS cells; test: Ionizing radiation focus formation, γ-H2AX (immunofluorescence); format: cell-based; details: transfected U2OS cells, 10 Gy, 1 h post-irradiation
Procedure: FIG. 3. The i53 protein inhibits 53BP1. FIG. 3A-B, U2OS cells were transfected with vectors expressing i53, its 53BP1-binding deficient mutant (DM) or an empty vector (EV) control. Cells were then X-irradiated with a 10 Gy dose and processed for immunofluorescence with the indicated antibodies 1 h post-irradiation (IR). DAPI staining (not shown) was used to delineate the outline (dashed lines) of the cell nuclei. The region in the magnified inset is indicated with a square. Quantitation of the experiment is shown in panel (a) and data is indicated as the mean±s.e.m (N=3), whereas in (b) representative micrographs are shown. Arrowheads indicate Flag-positive cells. FIG. 3C, Parental or 53BP1ΔU2OS cells transfected with vectors expressing i53, the DM mutant or an empty vector (EV) control were irradiated (10 Gy) 1 h before being processed for immunofluorescence. Cell cycle stage was assessed by Cyclin A staining. The data is presented as the mean±s.e.m.; N=3. FIG. 3D, Immunoprecipitation (IP) of Flag-tagged proteins from extracts prepared from 293T cells transfected with vectors expressing Flag-i53 or the i53-DM mutant. Proteins were separated by SDS-PAGE and immunoblotted (IB) for Flag and 53BP1. […]

[2] = biological target: T1, NAP1L1 (Homo sapiens, UniProt P55209); test: Flag IP-MS of i53/i53-DM baits: prey NAP1L1; format: binding; details: 293T Flp-In/T-Rex extracts, LC-MS/MS, one column per replicate IP
T1 construct: endogenous in cells; host or cells: HEK293 Flp-In/T-REx
T1 sequence (P55209 1-391): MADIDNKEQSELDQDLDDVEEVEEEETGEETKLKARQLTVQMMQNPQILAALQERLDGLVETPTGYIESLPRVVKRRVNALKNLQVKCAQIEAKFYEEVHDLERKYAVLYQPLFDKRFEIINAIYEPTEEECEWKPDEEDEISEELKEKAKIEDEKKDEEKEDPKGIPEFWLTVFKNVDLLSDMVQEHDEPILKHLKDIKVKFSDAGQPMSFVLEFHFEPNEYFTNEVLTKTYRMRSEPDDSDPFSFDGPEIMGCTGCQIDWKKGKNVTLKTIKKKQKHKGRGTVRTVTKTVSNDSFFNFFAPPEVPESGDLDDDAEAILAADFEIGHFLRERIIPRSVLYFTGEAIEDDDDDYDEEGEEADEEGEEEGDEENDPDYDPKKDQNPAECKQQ
Procedure: (§1) Following immunoprecipitation of Flag-tagged i53 and i-53-DM from HEK293 Flp-In/T-REx cells, peptides were identified using LC-MS/MS. Proteins were digested in solution with trypsin (Sigma, T7575-1KT) and dried to completeness. For LC-MS/MS analysis, peptides were reconstituted in 5% formic acid and loaded onto a 12-15 cm fused silica column with pulled tip packed in-house with 3.5 μm Zorbax C18 (Agilent Technologies, Calif., USA).
(§2) i53 and i53-DM precipitates were analyzed using an LTQ (Thermo Scientific) coupled to an Agilent 1100 Series HPLC (Agilent Technologies). Peptides were eluted from the column using a 90 min period cycle with a linear gradient from 0% to 40% ACN in 0.1% formic acid. Tandem MS spectra were acquired in a data-dependent mode for the top 5 (LTQ) most abundant ions using collision-induced dissociation. Acquired spectra were searched against the human Refseq_V53 database using Mascot (Matrix Science).
(§3) 293T Flp-In/T-Rex cell lines were generated that expressed Flag-tagged i53 or i53-DM under the control of a tetracycline-inducible promoter as previously described. Nine IP-MS experiments were analyzed (3 biological replicate IPs each for control i53- and i53-DM expressing cell lines). The interacting proteins were identified by MASCOT to identify high-confidence interactors for i53. […]

[3] = biological target: T2, RPS24 (Homo sapiens, UniProt P62847); test: Flag IP-MS of i53/i53-DM baits: prey RPS24; format: binding; details: 293T Flp-In/T-Rex extracts, LC-MS/MS, one column per replicate IP
T2 construct: endogenous in cells; host or cells: HEK293 Flp-In/T-REx
Procedure: as §1, §2, §3

[4] = biological target: T3, MYCBP (Homo sapiens, UniProt Q99417); test: Flag IP-MS of i53/i53-DM baits: prey MYCBP; format: binding; details: 293T Flp-In/T-Rex extracts, LC-MS/MS, one column per replicate IP, listed as Flag-i53-DM
T3 construct: endogenous in cells; host or cells: HEK293 Flp-In/T-REx
T3 sequence (Q99417 1-103): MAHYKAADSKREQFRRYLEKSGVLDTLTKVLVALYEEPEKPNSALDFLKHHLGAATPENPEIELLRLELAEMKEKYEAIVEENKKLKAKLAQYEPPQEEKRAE
Procedure: as §1, §2, §3

[5] = biological target: T4, RPL29 (Homo sapiens, UniProt P47914); test: Flag IP-MS of i53/i53-DM baits: prey RPL29; format: binding; details: 293T Flp-In/T-Rex extracts, LC-MS/MS, one column per replicate IP
T4 construct: endogenous in cells; host or cells: HEK293 Flp-In/T-REx cells
Procedure: as §1, §2, §3

[6] = biological target: T5, HIST2H2BE (Homo sapiens, UniProt Q16778); test: Flag IP-MS of i53/i53-DM baits: prey HIST2H2BE; format: binding; details: 293T Flp-In/T-Rex extracts, LC-MS/MS, one column per replicate IP
T5 construct: endogenous in cells; host or cells: HEK293 Flp-In/T-REx cells
Procedure: as §1, §2, §3

Row | Substance | γ-H2AX focus formation [1] | Total peptides, NAP1L1 [2] | Total peptides, RPS24 [3] | Total peptides, MYCBP [4] | Total peptides, RPL29 [5] | Total peptides, HIST2H2BE [6]
1 | i53: UbvG08 with C-terminal di-glycine removed and I44A mutation; genetically encoded inhibitor of 53BP1 | did not impact | 4 |  |  |  | 
2 | i53-DM: 53BP1-binding deficient mutant of i53 (P69L, L70V) |  |  | 4 | 7 and 5 | 3 | 3
